Experimental data: the DeepSol protein solubility set

Experiment: soluble on expression in E. coli; label from the status in PepcDB or PDB records

Row | Sequence | soluble on expression in E. coli
1 | MTAYGHMPGEAIECLSIAVELHKQEVIDAHGQVTIRVGFKIGGGIDQDPTKAPFKYPDSGVYITNVESGSPADVAGLRKHDKILQVNGADFTMMTHDRAVKFIKQSKVLHMLVARADLPPVSLH | not soluble
2 | MTCDDWNSYIQVNIYGKTIEGLQQQGVVLESLLNNVGCSKVWIMEGSVCTNPRPESSTHSEESTIEPVVPLSTTLATNKLPRFSTPAIGHSNNNSSKNFTLNLAEKLSEILSDDDKTDEFLENSHQSETSKDDVIKDLLEEMVQTVANSNKPPILLSTTLANVGVPRFSTPIKPQHALNRDFTMNMTEMISEIDSNYEGYELFDDSSNDCTTLTPNCQEVESSFYRALSEAASSIVPYQEGKRRSSRRLSTLSSLKETVKVEPAVSKLTKRRRLTPVECSSETMIPHSQPIPLDTCSDQPIFPNSTHNAIQSDGFSYEQPICEFGDSQLFLSAKSLCTEPNSSIAEDVKPVLTVSDSDITASNRNNIDDHNRVIELSTEV | not soluble
3 | MTCEGRRTMTQPISLGHRMSLIDLYDLRMPQRTGTYVLHEENLAIIETGPSPSVPHLLAGLKALHIDPADIRYIIVTHIHLDHAGGVGVLLEHCPNATVIVHPKGKRHLADPSRLIAGAKAVYGEQFDALFDPIVPVPEERLLVKEDGETLVLSAERTLTFYDTPGHANHHFSIYDSYSGGVFTGDTIGVFYPQLQEAGLAFCLPSTSPNQFNPEAMKQSAERLEKLNPTRIYFGHFGALDQPEEAFRQLRFWLPKFVAAGKEVIARHPEAPAAEQAKAVTKLLHNDITAFLNECSIPASSPVYKVIELDLQVCAMGIIDYWRKQRLEHHHHHH | soluble
4 | MTDETTQNIKDKTEEELAALLDQTLGEFTATPAPKPRTTDDELDELMASADQEAAQKAAKDFQKMLEQMVTLQEEAMKKAGADPSEGEGEQPLDPNDPEALAMMDALKQLMECSSNVANASNPEEFMAGLDMLRSPNSPMEPFMSMIMQTLASKEVMYPPLKEIFDNYPKYLEDNGAGLDAETKERYEKQFEVLGKICTEFEKQPELAEVQPVDAATQPAPEADPASIEHFEKLGKLLVELQQYGYPPKELVGALPDGWQIDESGLPKVADAAAATEACSIM | soluble
5 | MTDIAKLEPTAVWEHFQTLCDIPRPSKHEEQVRDYMKGWAELRGLETVVDKVGNLIIRKPATPGYEDRAGVVLQGHLDMVCQANSGTEHDFFKDPIRPVLKDGWLVAENTTLGADNGIGVALGMAVLSGDDVAHGPVEVLLTLDEEAGMGGALGLETGLLRGQYLINIDTEEWGEFYMGCAGGVDVNVTREYAVEAVPAGFQTASLTIKGLKGGHSGADIHLGRGNANKILIRLLRELEAETELRLSSLQGGTARNALSREAFAVVAYPTADAAKVAAKLDAFQALMRFELAGVDEGVSVLSEAAPAAGVLARADQDVILAALHAAPHGVKRMSQRVEGVVETSNNLGVVSVADGKVFANLMVRSLLDSGTWMLAREAESLFKLAAFKVEMEGGYPGWAPNPQSKLLALFKDVYRREFGAEAEVQVIHAGLECGILGSKYPNLDMVSFGPNIRGAHAPGERVEVESVGKAWQLLQAVLKAIPARLEHHHHHH | soluble
6 | MTDLSRMQGFADSAIPALEGRFFRPPLPEGYVPRSRLCQRLNEGLGGRLLLVCAPAGFGKSSLAVEFCQGLPDQWQNVWLGLSARDSEPGRFLERLLGSLQQFFPQLGAQAMGLLKMRQRHQPFAFEEWLDSLLDELAMHLMLSKPLLLVLDDYHLAQGPVLDRCLQFFLNHLPAGLVVMVTSRQRPDWHLARLRLTRQLLEINEQDLRLTQAESMAVLDRHSRSLDSEALQSLILRSEGWVAGLRFWLLAASEAGDESALSQALRGSEVLIREYLLEEVIDCLPADVQAFLYDTACLERFCAELCNAARDSHDSVEMLRYLQAHQVFLVPLDEQGRWFRYHHLFSDLLRARQTADAQTTRLHLNACRWFSAQGQLDEAVEQALRAGHLDVAANLVQNLSEEQLLAEQNVGMLLRWKMDLPDDLLTSTPRLIVLYAWALGLACQLDAAEELANQLSRFLPAPSATAQKSMLAQWLALSGIIARGRGDSEKTERYCREALLTLPQRRYGQRLVCLSTLANLAVAEGDLWQARVLNRDALELAQRVANPLFEALAHYDRARVLQARGEIIRALEEVRQGQQRLKGLSTVRLYAVRARLTLYEGYLLALRLQVDEGRALLLAGLAEARACRDISVLIGHCVIATMEGFAGRFAEAFAELAEAERLMHIWDVPPIYYLAMITLVKCELWLIQGRIDLAEAWLLRLTQTYNGGLGAAAPECHPQLSQHIELQRAVLERIQGDEVASEQRLQALEQRAQEVGAQLLRLIAMTQQIALLLNQGRQDEARTLLIRSVQASAGGALLPFRVLLAEHSQWLHEQLQLAPSCKLCNALREKFPACFKPAAPEPAHGSDCLSVRELGVLRLIAQGCSNQEISEQLFISLHTVKTHASHINSK | not soluble
